In series [1] the target is C/EBPalpha (UniProt P05554 P05554:1-358). The series can be described thus: cell_activity; CAT transactivation in HepG2; completely inhibited by 3heptad-F. To be noted: tags: N-terminal FLAG; chain copies: 2 (inferred). From the text: Human hepatoma cells (HepG2) were transiently transfected with three plasmids, a chloramphenicol acetyl transferase (CAT) expression plasmid driven by a single C/EBP cis element, the C/EBP transactivator, and different DNs. The histogram presents the extent of transactivation observed in the presence of different combinations of transactivator and dominant-negatives. In the absence of any DN, expressed C/EBP transactivated a single C/EBP site approximately 10 fold. […] This protein was able to transactivate a C/EBP containing promoter and was not inhibited by 3heptad-F.
In these experiments, 10 μg of reporter plasmid, 0.3 μg of transactivator, and 5 μg of DN were added to each transient transfection. […] Sheared salmon sperm DNA was added to bring the DNA concentrations to 20 μg. Calcium phosphate transfections were performed following the manufacturer's instructions (Gibco).

The target in series [2] is T1, VBP-C/EBP chimera (VBP basic region, C/EBP leucine zipper) (Gallus gallus / Rattus norvegicus?).
T1 chain: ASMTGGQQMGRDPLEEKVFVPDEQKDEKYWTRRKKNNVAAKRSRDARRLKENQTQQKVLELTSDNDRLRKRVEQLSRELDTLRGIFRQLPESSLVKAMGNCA
The series can be described thus: competition; calculated from displacement by 0-3heptad-F dominant negatives, Trp fluorescence, 25 C, 150 mM KCl, 12.5 mM phosphate pH 7.4. Conditions: chain copies: 2 (stated). As to the method: FIG. 14A: 3heptad-F inhibits C/EBP DNA binding. […] Protein was diluted four-fold in the successive lanes. […] FIG. 14B: Displacement of VBP-C/EBP from DNA by five dominant negatives (DNs) assayed by fluorescence. Fluorescence of a single tryptophan located in the basic region of VBP-C/EBP increased upon DNA binding (minutes 5–10). The addition of 1.1 molar equivalents of the F zipper or of the four different acidic extension caused a decrease in fluorescence. After 20 minutes, 10 more molar equivalents were added, causing an additional displacement of VBP-C/EBP from the DNA. 4heptad-F, shown in bold, causes the most dramatic displacement of VBP:C/EBP. […] This is not observed for the other four mixtures which return to the VBP-C/EBP-only baseline.

Consider two molecules from patent US6361968, “Extension of a protein-protein interaction surface to inactive the function of a cellular protein” (The United States of America as represented by the …).

B1: C/EBP consensus site in CAT reporter promoter (dsDNA)
DNA 1: ATTGCGCAAT
DNA 2: ATTGCGCAAT
In the case of B1, the activity in series [1] is roughly 10 fold.

B2: 28 bp C/EBP site probe (dsDNA)
DNA 1: GTCAGTCAGATTGCGCAATATCGGTCAG
DNA 2: CTGACCGATATTGCGCAATCTGACTGAC
In the case of B2, in series [2], the Kd (usually a measure of binding affinity in units of concentration) was 0.1 nM.
